# Legend:
# Test in all cases: ITC
# [1] = target: TplEi E219A (Pseudomonas aeruginosa) (UniProt Q9I3K3)
# [2] = target: TplEi S215A (Pseudomonas aeruginosa) (UniProt Q9I3K3)
# [3] = target: TplEi R266A (Pseudomonas aeruginosa) (UniProt Q9I3K3)
# [4] = target: TplEi (Pseudomonas aeruginosa) (UniProt Q9I3K3)
substance,measurement,setting,value
"A peptides (“L” peptide, TplE 82-108 plus EQVEVDD) (from UniProt Q9I3K2 82-115)",Kd,[1],35.5 µM
same,Kd,[2],7.8 µM
same,Kd,[3],46.9 µM
“L” peptide W92A (from UniProt Q9I3K2 82-115),fold reduction in binding affinity against the wild-type peptide,[4],500 fold
